In patent US20250179143A1 (CHILDREN S HOSPITAL OF PHILADELPHIA, published 2025):
Where a chain is given by its changes, count along the chain named. In names and notes the source's numbering stands.

B1: hTAPBPR^RQ (K211R, R270Q) (other)
chain: KPHPAEGQWRAVDVVLDCFLAKDGAHRGALASSEDRARASLVLKQVPVLDDGSLEDFTDFQGGTLAQDDPPIIFEASVDLVQIPQAEALLHADCSGKEVTCEISRYFLQMTETTVKTAAWFMANMQVSGGGPSISLVMKTPRVTKNEALWHPTLNLPLSPQGTVRTAVEFQVMTQTQSLSFLLGSSASLDCGFSMAPGLDLISVEWRLQHRGRGQLVYSWTAGQGQAVRKGATLEPAQLGMARDASLTLPGLTIQDEGTYICQITTSLYQAQQIIQLNIQASPKVRLSLANEALLPTLICDIAGYYPLDVVVTWTREELGGSPAQVSGASFSSLRQSVAGTYSISSSLTAEPGSAGATYTCQVTHISLEEPLGASTQVVPPERR
notes: domain: luminal domain; As m1
B2: hTAPBPR^KRQ (R105K, K211R, R270Q) (other)
chain: B1 chain with R105K
notes: domain: luminal domain; As m1

Columns and labels:
[1] = target: HLA-A*02:06/hb2m/KILGFVF(bF)V (human); assay: cell-based or functional assay
[2] = target: HLA-A*01:01/hb2m/STAPGJLEY (peptide-loaded) (human); assay: cell-based or functional assay
[3] = target: HLA-A*02:01/hb2m/KILGFVF(bF)V (human); assay: cell-based or functional assay
[4] = target: HLA-A*02:01/hb2m/KILGFVFJV (peptide-loaded) (human); assay: SPR, peptide-loaded HLA-A*02:01

Binder | k2overall, fold against hTAPBPR [1] [fold] | kapp of fluorescent peptide binding at 5 uM chaperone (FP) [2] [s⁻¹] | k2overall, fold against hTAPBPR [3] [fold] | fold lower KD than hTAPBPR [4] [fold]
B1 | ~9 | 0.00014 | ~60 | ~7
B2 | ~9 | 0.00013 | ~60 | ~7
